Legend:
[1] = Competitive ELISA, relative CTS specificity, free MBG as competitor; type: binding; conditions: competition with immobilized MBG-BSA; normalized to MBG = 100%
Protocol: (§1) The specificity (relative affinity) of anti-MBG antibodies for MBG relative to various cardiotonic steroids (CTSs) was determined in a competitive ELISA. Each anti-MBG antibody was tested for its binding to immobilized MBG in the presence of free MBG, resibufogenin (RBG), cinobufagin (CINO), ouabain (OUB) or digoxin (DIG) as a competitor. A constant amount of an anti-MBG antibody (typically 1-5 μg/mL) and varying concentrations of each CTS (from 10^−12M to 10^−5M) were pre-incubated before being added to the MBG-BSA-coated wells. After washing of the wells, an anti-human Fc, HRP-conjugated secondary antibody (at 1:5000 dilution) was added to the wells and incubated at 37° C. for 1 hr. After washing of the wells, an appropriate HRP reagent (e.g., TMB ultra, Thermo Fisher) was added to the wells. OD at 450 nm was measured by a microplate reader. MBG at 10 μM was assumed to be 100% competed, and MBG at 1 pM was assumed to be 0% competed. The data was plotted as a titration of antibody-antigen binding relative to free CTS concentration in the competition reaction to determine the free CTS concentration (μM) giving 50% maximal binding of antibody to immobilized MBG. The relative specificity of an antibody for a CTS was normalized to MBG=100%.

[2] = Competitive ELISA, relative CTS specificity, DIG as competitor; type: binding; conditions: competition with immobilized MBG-BSA; normalized to MBG = 100%
Protocol: as §1

[3] = Competitive ELISA, free CTS competitors overall (summary and footnote); type: binding; conditions: competitors RBG, CINO, OUB, DIG; Table 2
Protocol: as §1

[4] = Competitive ELISA, relative CTS specificity, RBG as competitor; type: binding; conditions: competition with immobilized MBG-BSA; normalized to MBG = 100%
Protocol: as §1

[5] = Competitive ELISA, relative CTS specificity, OUB as competitor; type: binding; conditions: competition with immobilized MBG-BSA; normalized to MBG = 100%
Protocol: as §1

[6] = Competitive ELISA, relative CTS specificity, CINO as competitor; type: binding; conditions: competition with immobilized MBG-BSA; normalized to MBG = 100%
Protocol: as §1

[7] = system: PKC-δ in the nucleus of primary rat cardiac fibroblasts; assay: Inhibition of MBG-induced PKC-δ nuclear translocation (Western blot); conditions: MBG 2 nM; nuclei isolated 30 min later; FIG. 2a
Protocol: MBG was incubated with an anti-MBG antibody prior to addition to cultured primary rat cardiac fibroblasts. Nuclei were isolated 30 min later and analyzed for amount of PKC-6.

[8] = system: human umbilical cord venous endothelial cells (HUVEC); assay: Reversal of MBG inhibition of HUVEC cell proliferation (3H-thymidine); type: cell-based; conditions: MBG 2 nM, 48 hr
Protocol: MBG (2 nM) was incubated with an antibody (20 μg/mL in FIG. 3a with human anti-MBG mAbs, or varying concentrations (2.5-10 μg/mL) in FIG. 3b with humanized anti-MBG mAbs) prior to addition to cultured human umbilical cord venous endothelial cells (HUVEC). After 48 hr, DNA synthesis was assessed by incorporation of ^3H-thymidine.
HUVEC cells in endothelial cell growth medium were plated onto 96-well plates. The next day, the cells were pretreated with various antibodies (2.5-20 μg/mL) and then incubated with 2 nM MBG for 48 hr. [^3H]-Thymidine was added to each well. [^3H]-Thymidine-labeled DNA was assayed by harvesting the cells and assaying for ^3H using a PerkinElmer Wallac Tailux liquid scintillation counter. […] Means were tested for significance using Student's t-test.

Molecule | Rel. CTS Specificity as % of MBG Binding: MBG [1] | Rel. CTS Specificity as % of MBG Binding: OUB [5] | amount of PKC-δ in the nucleus, MBG plus antibody [7] | other results
1B-6C: human anti-MBG antibody, VH SEQ ID NO: 87, VL SEQ ID NO: 88 (antibody, listed as Homo sapiens) VH: QVQLQESGPGLVKPSETLSLTCTVSGGSISSSSYYWGWIRQPPGKGLEWIGSIYYSGSTYYNPSLKSRVTISLDTSKNQFSLKLSSLTAADTAVYYCARVPAIRSSAIFDYWGQGTLVTVSS light: QSVVTQPPSVSAAPGQKVTISCFGSRSNIGNNYVSWYQQFPGTAPQLLIFDNNKRPSGIPDRFSGSKSGTSASLGITGVQTGDEAEYYCGAWDSSLSAGAVFGGGTKLTVLGQPKAAPSVTLFPPSSEELQANKATLVCLISDFYPGAVTVAWKADSSPVKAGVETTTPSKQSNNKYAASSYLSLTPEQWKSHRSYSCQVTHEGSTVEKTVAPTECS | 100% | – | – | –
2A-5A: human anti-MBG antibody, VH SEQ ID NO: 100, VL SEQ ID NO: 101 (antibody, listed as Homo sapiens) VH: QVQLQESGPGLVKPSETLSLTCTVSGGSISSSSYYWGWIRQPPGKGLEWIGSIYYSGSTYYNPSLKSRVTISVDTSKNQFSLKLSSVTAADTAVYYCARFSRGGPFLWGRGTLVTVSS light: QSVVTQPPSVSAAPGQKVTISCSGSSSNIGSYSVSWYQQLPGTAPKLLIYDNNKRPSGIPDRFSGSKSGTSATLGITGLQTGDEADYYCGTWDSSLSAYVFGSGTKVTVLGQPKANPTVTLFPPSSEELQANKATLVCLISDFYPGAVTVAWKADGSPVKAGVETTKPSKQSNNKYAASSYLSLTPEQWKSHRSYSCQVTHEGSTVEKTVAPTECS | 100% | 0% | – | Rel. CTS Specificity as % of MBG Binding: DIG [2]: 2.5%; reaction with CTS competitor molecules [3]: reacted with the CTS competitors RBG, CINO and DIG; Rel. CTS Specificity as % of MBG Binding: RBG [4]: 10%; Rel. CTS Specificity as % of MBG Binding: CINO [6]: 2.5%
H3L1: humanized anti-MBG antibody, VH H3 (SEQ ID NO: 11) with VL L1 (SEQ ID NO: 12) (antibody, V domains shown, Humanized VH sequence; Humanized VL sequence) VH: EVQLQESGPGLVKPSETLSLTCTVSGDSITSGYWNWIRQPPGKGLEYMGYISYSGTTYYNPSLKSRITISRDTSKNQYSLKLSSVTAADTAVYYCARARYGYGFDYWGQGTLVTVSS VL: DVVMTQSPLSLPVTLGQPASISCRSSQSIVHSNRNTYLEWFQQRPGQSPRRLIYKVSNRFSGVPDRFSGSGSGTDFTLKISRVEAEDVGVYYCFQGSHVPLTFGGGTKVEIK | – | – | reduced | –
H2L1: humanized anti-MBG antibody, VH H2 (SEQ ID NO: 10) with VL L1 (SEQ ID NO: 12) (antibody, V domains shown, Humanized VH sequence; Humanized VL sequence) VH: EVQLQESGPGLVKPSETLSLTCTVSGDSITSGYWNWIRQPPGKGLEYIGYISYSGTTYYNPSLKSRVTISRDTSKNQFSLKLSSVTAADTAVYYCARARYGYGFDYWGQGTLVTVSS VL: DVVMTQSPLSLPVTLGQPASISCRSSQSIVHSNRNTYLEWFQQRPGQSPRRLIYKVSNRFSGVPDRFSGSGSGTDFTLKISRVEAEDVGVYYCFQGSHVPLTFGGGTKVEIK | – | – | to a lesser extent | –
H2L2: humanized anti-MBG antibody, VH H2 (SEQ ID NO: 10) with VL L2 (SEQ ID NO: 13) (antibody, V domains shown, Humanized VH sequence; Humanized VL sequence) VH: EVQLQESGPGLVKPSETLSLTCTVSGDSITSGYWNWIRQPPGKGLEYIGYISYSGTTYYNPSLKSRVTISRDTSKNQFSLKLSSVTAADTAVYYCARARYGYGFDYWGQGTLVTVSS VL: DVVMTQSPLSLPVTLGQPASISCRSSQSIVHSNRNTYLEWYQQRPGQSPRLLIYKVSNRFSGVPDRFSGSGSGTDFTLKISRVEAEDVGVYYCFQGSHVPLTFGGGTKVEIK | – | – | to a lesser extent | MBG inhibition of HUVEC cell proliferation, humanized mAbs ([8]; antibody 2.5-10 μg/mL, FIG. 3b): significantly reduced
238/239: human anti-MBG antibody, VH SEQ ID NO: 41, VL SEQ ID NO: 42 (antibody, listed as Homo sapiens, V domains shown) VH: QLQLQESGPGLVKPSETLSLTCTVSGGSISSSSYYWGWIRQPPGKGLEWIGSIYYSGSTYYNPSLKSRVTISVDTSKNQFSLKLSSVTAADTAVYYCARVVVARTGTTISWFDPWGQGTLVTVSS VL: QAVLTQPSSLSASPGASASLTCTLRSGINVDTYRIYWYQQKPGSPPQYLLRYKSDSDKQQGSGVPSRFSGSKDASANAGILLISGLQSEDEADYYCVIWHSSAWVFGGGTKLTVL | 100% | 10% | to a lesser extent | reaction with CTS competitor molecules [3]: reacted with the CTS competitor OUB; MBG inhibition of HUVEC cell proliferation, human mAbs ([8]; antibody 20 μg/mL, FIG. 3a): significantly reduced
205/207: human anti-MBG antibody, VH SEQ ID NO: 53, VL SEQ ID NO: 54 (antibody, listed as Homo sapiens, V domains shown) VH: QLQLQESGPGLVKPSETLSLTCTVSGGSISSSSYYWGWIRQPPGKGLEWIGSIYYSGSTYYNPSLKSRVTISVDTSKNQFSLKLSSVTAADTAVYYCARFHTWAPRAFDIWGQGTMVTVSS VL: QSVVTQPPSVSAAPGQEVTISCSGSSSNIGNNYVSWYQQLPGTAPKLLIYDNNKRPSGIPDRFSGSKSGTSATLGITGLQTGDEADYYCGTWDSSLSALFGGGTKLTVL | 100% | 0% | – | Rel. CTS Specificity as % of MBG Binding: DIG [2]: 0%; Rel. CTS Specificity as % of MBG Binding: CINO [6]: 0%
R4CE-10H: human anti-MBG antibody, VH SEQ ID NO: 80, VL SEQ ID NO: 81 (antibody, listed as Homo sapiens) VH: QLQLQESGPGLVKPSQTLSLTCTVSGGSISSGGYYWSWIRQPPGKGLEWIGSIYHSGSTYYNPSLKSRVTISVDTSKNQFSLKLSSVTAADTAVYYCARVMYYYGSGSPYWYFDLWGRGTLVTVSS light: QSVVTQPPSVSAAPGQKVTISCSGSSSNIGKNFVSWYQQFPGTAPKFLIYENSKRPSGIPDRISGSKSGTSATLAITGLQTGDEADYYCGTWDSSLSAVVFGGGTKLTVLSQPKAAPSVTLFPPSSEELQANKATLVCLISDFYPGAVTVAWKADSSPVKAGVETTTPSKQSNNKYAASSY | 100% | – | – | –

— patent publication US10654925B2, “Anti-marinobufagenin antibodies and uses thereof” (priority 2018, dated 2020)
